Values quoted from earlier work as cited in publication PMC8945002.
pKd: −log10 of the molar value.

Target: BfrB (recombinant) (Pseudomonas aeruginosa) (UniProt Q9HY79)
Experiment: SPR

Sequence of Bfd (Q9HY80 whole entry): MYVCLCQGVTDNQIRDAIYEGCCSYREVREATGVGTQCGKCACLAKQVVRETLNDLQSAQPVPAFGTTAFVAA
Sequence of BfrB (recombinant) (Pseudomonas aeruginosa) (Q9HY79 whole entry): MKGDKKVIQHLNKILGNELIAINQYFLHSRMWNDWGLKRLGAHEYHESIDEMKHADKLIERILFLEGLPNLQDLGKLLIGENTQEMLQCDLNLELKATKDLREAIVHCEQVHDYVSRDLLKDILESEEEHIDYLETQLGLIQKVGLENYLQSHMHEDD

**Q.** With Bfd (from UniProt Q9HY80) as the substance, how does the pKd read?
**A.** 5.48
